A value given as a limit tells only on which side of the number the result lay.

Among the data in patent US20110159037A1 are IC50, HIV Neutralization ID50 In PBMC assay and relative units (relative units based on a standard curve) values, retold here.

The target of test [1] is HIV-1 envelope gp41 (virus of the PBMC neutralization assay) (HIV-1, isolate not stated).
The target of the next test is Histones. In words: Luminex AtheNA Multi-Lyte ANA Test, 0.15 µg mab per test.
The target of test [2] is Centromere B (Homo sapiens (Human)) (UniProt P07199). The description is as above.
The next test deals with Ro (SSA). The test is described as above.

A word on the IC50: it is the concentration that gives 50% inhibition. A higher IC50 goes with weaker potency in that assay. With “soluble HIV-1 Env gp140 oligomers (CON-S)”, in the test with Mab 4E10, the IC50 is 145 nM.
Substance 13H11 (antibody) returned an HIV Neutralization ID50 In PBMC assay in test [1] greater than 50 µg/mL.
For the substance IgG1b12 (antibody), the relative units (relative units based on a standard curve) with Histones was determined as 185; in test [2] it was 479.
In test [1], 98-6 (antibody) yielded an HIV Neutralization ID50 In PBMC assay of 3.5 µg/mL.
Mab 2F5 (antibody) gave an HIV Neutralization ID50 In PBMC assay in test [1] of 1 µg/mL. The relative units (relative units based on a standard curve) was determined as 290 in the test with Ro (SSA), 1010 in the test with Histones and 1780 in test [2].
On to Mab 4E10 (antibody), for which the relative units (relative units based on a standard curve) with Ro (SSA) worked out at 221.
In the case of A32 (antibody), the relative units (relative units based on a standard curve) in test [2] was 1130.
